# Starred links: 1 amine or outer side, 2 acyl side, 3 side chain; linkers in the order of their positions; H or OH if unused. Non-standard residues stand in square brackets, D forms with d. Groups on a side chain read outwards from the residue. No end group written: not given here. *: point of attachment. C20 diacid = O=C(O)CCCCCCCCCCCCCCCCCCC(=O)*; C18 diacid = O=C(O)CCCCCCCCCCCCCCCCC(=O)*; γGlu = O=C(O)[C@H](CCC(=O)[*:2])N[*:1]; αMeF = C[C@](N)(Cc1ccccc1)C(=O)O; AEEA = NCCOCCOCC(=O)O; Aib = CC(C)(N)C(=O)O
# Assays:
# [1] = molecular target: human GLP-1 receptor (human, UniProt P43220); assay: cell-based or functional assay
# [2] = molecular target: human glucagon receptor (human, UniProt P47871); assay: cell-based or functional assay
Binder,"cAMP production, hGLP-1R EC50 (pM) [1]","cAMP production, hGluc-R EC50 (pM) [2]"
HSQGS[αMeF]TSDVSK[αMeF]LDSK([γGlu-C18 diacid])AAQDFVQWIANT-NH2 (N-terminus assumed; SMILES CC[C@H](C)[C@H](NC(=O)[C@H](Cc1c[nH]c2ccccc12)NC(=O)[C@H](CCC(N)=O)NC(=O)[C@@H](NC(=O)[C@H](Cc1ccccc1)NC(=O)[C@H](CC(=O)O)NC(=O)[C@H](CCC(N)=O)NC(=O)[C@H](C)NC(=O)[C@H](C)NC(=O)[C@H](CCCCNC(=O)CC[C@H](NC(=O)CCCCCCCCCCCCCCCCC(=O)O)C(=O)O)NC(=O)[C@H](CO)NC(=O)[C@H](CC(=O)O)NC(=O)[C@H](CC(C)C)NC(=O)[C@](C)(Cc1ccccc1)NC(=O)[C@H](CCCCN)NC(=O)[C@H](CO)NC(=O)[C@@H](NC(=O)[C@H](CC(=O)O)NC(=O)[C@H](CO)NC(=O)[C@@H](NC(=O)[C@](C)(Cc1ccccc1)NC(=O)[C@H](CO)NC(=O)CNC(=O)[C@H](CCC(N)=O)NC(=O)[C@H](CO)NC(=O)[C@@H](N)Cc1c[nH]cn1)[C@@H](C)O)C(C)C)C(C)C)C(=O)N[C@@H](C)C(=O)N[C@@H](CC(N)=O)C(=O)N[C@H](C(N)=O)[C@@H](C)O) [Peptide 3],69 pM,149 pM
H[Aib]QGTFTSDVSK[αMeF]LDSK([γGlu-γGlu-AEEA-AEEA-γGlu-γGlu-C18 diacid])RARDFVRWLLE[Aib]G-OH (N-terminus assumed; SMILES CC(C)C[C@H](NC(=O)[C@H](Cc1c[nH]c2ccccc12)NC(=O)[C@H](CCCNC(=N)N)NC(=O)[C@@H](NC(=O)[C@H](Cc1ccccc1)NC(=O)[C@H](CC(=O)O)NC(=O)[C@H](CCCNC(=N)N)NC(=O)[C@H](C)NC(=O)[C@H](CCCNC(=N)N)NC(=O)[C@H](CCCCNC(=O)CC[C@H](NC(=O)CC[C@H](NC(=O)COCCOCCNC(=O)COCCOCCNC(=O)CC[C@H](NC(=O)CC[C@H](NC(=O)CCCCCCCCCCCCCCCCC(=O)O)C(=O)O)C(=O)O)C(=O)O)C(=O)O)NC(=O)[C@H](CO)NC(=O)[C@H](CC(=O)O)NC(=O)[C@H](CC(C)C)NC(=O)[C@](C)(Cc1ccccc1)NC(=O)[C@H](CCCCN)NC(=O)[C@H](CO)NC(=O)[C@@H](NC(=O)[C@H](CC(=O)O)NC(=O)[C@H](CO)NC(=O)[C@@H](NC(=O)[C@H](Cc1ccccc1)NC(=O)[C@@H](NC(=O)CNC(=O)[C@H](CCC(N)=O)NC(=O)C(C)(C)NC(=O)[C@@H](N)Cc1c[nH]cn1)[C@@H](C)O)[C@@H](C)O)C(C)C)C(C)C)C(=O)N[C@@H](CC(C)C)C(=O)N[C@@H](CCC(=O)O)C(=O)NC(C)(C)C(=O)NCC(=O)O) [Peptide 136],45.2 pM,509 pM
H[Aib]QGTFTSDVSK[αMeF]LDSK([γGlu-γGlu-AEEA-AEEA-γGlu-γGlu-C18 diacid])RAQDFVRWLLEG[Aib]-OH (N-terminus assumed; SMILES CC(C)C[C@H](NC(=O)[C@H](CC(C)C)NC(=O)[C@H](Cc1c[nH]c2ccccc12)NC(=O)[C@H](CCCNC(=N)N)NC(=O)[C@@H](NC(=O)[C@H](Cc1ccccc1)NC(=O)[C@H](CC(=O)O)NC(=O)[C@H](CCC(N)=O)NC(=O)[C@H](C)NC(=O)[C@H](CCCNC(=N)N)NC(=O)[C@H](CCCCNC(=O)CC[C@H](NC(=O)CC[C@H](NC(=O)COCCOCCNC(=O)COCCOCCNC(=O)CC[C@H](NC(=O)CC[C@H](NC(=O)CCCCCCCCCCCCCCCCC(=O)O)C(=O)O)C(=O)O)C(=O)O)C(=O)O)NC(=O)[C@H](CO)NC(=O)[C@H](CC(=O)O)NC(=O)[C@H](CC(C)C)NC(=O)[C@](C)(Cc1ccccc1)NC(=O)[C@H](CCCCN)NC(=O)[C@H](CO)NC(=O)[C@@H](NC(=O)[C@H](CC(=O)O)NC(=O)[C@H](CO)NC(=O)[C@@H](NC(=O)[C@H](Cc1ccccc1)NC(=O)[C@@H](NC(=O)CNC(=O)[C@H](CCC(N)=O)NC(=O)C(C)(C)NC(=O)[C@@H](N)Cc1c[nH]cn1)[C@@H](C)O)[C@@H](C)O)C(C)C)C(C)C)C(=O)N[C@@H](CCC(=O)O)C(=O)NCC(=O)NC(C)(C)C(=O)O) [Peptide 137],143 pM,268 pM
H[Aib]QGTFTSDVSK[αMeF]LDSK([γGlu-γGlu-AEEA-AEEA-γGlu-γGlu-C18 diacid])RAQDFVRWLLE[Aib]G-OH (N-terminus assumed; SMILES CC(C)C[C@H](NC(=O)[C@H](Cc1c[nH]c2ccccc12)NC(=O)[C@H](CCCNC(=N)N)NC(=O)[C@@H](NC(=O)[C@H](Cc1ccccc1)NC(=O)[C@H](CC(=O)O)NC(=O)[C@H](CCC(N)=O)NC(=O)[C@H](C)NC(=O)[C@H](CCCNC(=N)N)NC(=O)[C@H](CCCCNC(=O)CC[C@H](NC(=O)CC[C@H](NC(=O)COCCOCCNC(=O)COCCOCCNC(=O)CC[C@H](NC(=O)CC[C@H](NC(=O)CCCCCCCCCCCCCCCCC(=O)O)C(=O)O)C(=O)O)C(=O)O)C(=O)O)NC(=O)[C@H](CO)NC(=O)[C@H](CC(=O)O)NC(=O)[C@H](CC(C)C)NC(=O)[C@](C)(Cc1ccccc1)NC(=O)[C@H](CCCCN)NC(=O)[C@H](CO)NC(=O)[C@@H](NC(=O)[C@H](CC(=O)O)NC(=O)[C@H](CO)NC(=O)[C@@H](NC(=O)[C@H](Cc1ccccc1)NC(=O)[C@@H](NC(=O)CNC(=O)[C@H](CCC(N)=O)NC(=O)C(C)(C)NC(=O)[C@@H](N)Cc1c[nH]cn1)[C@@H](C)O)[C@@H](C)O)C(C)C)C(C)C)C(=O)N[C@@H](CC(C)C)C(=O)N[C@@H](CCC(=O)O)C(=O)NC(C)(C)C(=O)NCC(=O)O) [Peptide 138],104 pM,184 pM
H[Aib]QGTFTSDVSK[αMeF]LDSK([γGlu-γGlu-AEEA-AEEA-γGlu-γGlu-C20 diacid])RAQDFVRWLLE[Aib]G-OH [Peptide 139],630 pM,984 pM
H[Aib]QGTFTSDVSK[αMeF]LDSK([AEEA-AEEA-γGlu-C18 diacid])RAQDFVAWLLE[Aib]G-OH (N-terminus assumed; SMILES CC(C)C[C@H](NC(=O)[C@H](Cc1c[nH]c2ccccc12)NC(=O)[C@H](C)NC(=O)[C@@H](NC(=O)[C@H](Cc1ccccc1)NC(=O)[C@H](CC(=O)O)NC(=O)[C@H](CCC(N)=O)NC(=O)[C@H](C)NC(=O)[C@H](CCCNC(=N)N)NC(=O)[C@H](CCCCNC(=O)COCCOCCNC(=O)COCCOCCNC(=O)CC[C@H](NC(=O)CCCCCCCCCCCCCCCCC(=O)O)C(=O)O)NC(=O)[C@H](CO)NC(=O)[C@H](CC(=O)O)NC(=O)[C@H](CC(C)C)NC(=O)[C@](C)(Cc1ccccc1)NC(=O)[C@H](CCCCN)NC(=O)[C@H](CO)NC(=O)[C@@H](NC(=O)[C@H](CC(=O)O)NC(=O)[C@H](CO)NC(=O)[C@@H](NC(=O)[C@H](Cc1ccccc1)NC(=O)[C@@H](NC(=O)CNC(=O)[C@H](CCC(N)=O)NC(=O)C(C)(C)NC(=O)[C@@H](N)Cc1c[nH]cn1)[C@@H](C)O)[C@@H](C)O)C(C)C)C(C)C)C(=O)N[C@@H](CC(C)C)C(=O)N[C@@H](CCC(=O)O)C(=O)NC(C)(C)C(=O)NCC(=O)O) [Peptide 141],264 pM,392 pM
H[Aib]QGTFTSDVSK[αMeF]LDSK([AEEA-AEEA-γGlu-C18 diacid])RARDFVAWLLE[Aib]G-OH (N-terminus assumed; SMILES CC(C)C[C@H](NC(=O)[C@H](Cc1c[nH]c2ccccc12)NC(=O)[C@H](C)NC(=O)[C@@H](NC(=O)[C@H](Cc1ccccc1)NC(=O)[C@H](CC(=O)O)NC(=O)[C@H](CCCNC(=N)N)NC(=O)[C@H](C)NC(=O)[C@H](CCCNC(=N)N)NC(=O)[C@H](CCCCNC(=O)COCCOCCNC(=O)COCCOCCNC(=O)CC[C@H](NC(=O)CCCCCCCCCCCCCCCCC(=O)O)C(=O)O)NC(=O)[C@H](CO)NC(=O)[C@H](CC(=O)O)NC(=O)[C@H](CC(C)C)NC(=O)[C@](C)(Cc1ccccc1)NC(=O)[C@H](CCCCN)NC(=O)[C@H](CO)NC(=O)[C@@H](NC(=O)[C@H](CC(=O)O)NC(=O)[C@H](CO)NC(=O)[C@@H](NC(=O)[C@H](Cc1ccccc1)NC(=O)[C@@H](NC(=O)CNC(=O)[C@H](CCC(N)=O)NC(=O)C(C)(C)NC(=O)[C@@H](N)Cc1c[nH]cn1)[C@@H](C)O)[C@@H](C)O)C(C)C)C(C)C)C(=O)N[C@@H](CC(C)C)C(=O)N[C@@H](CCC(=O)O)C(=O)NC(C)(C)C(=O)NCC(=O)O) [Peptide 142],59.4 pM,108 pM
H[Aib]QGTFTSDVSK[αMeF]LDSK([AEEA-AEEA-γGlu-C18 diacid])RARDFVQWLLE[Aib]G-OH (N-terminus assumed; SMILES CC(C)C[C@H](NC(=O)[C@H](Cc1c[nH]c2ccccc12)NC(=O)[C@H](CCC(N)=O)NC(=O)[C@@H](NC(=O)[C@H](Cc1ccccc1)NC(=O)[C@H](CC(=O)O)NC(=O)[C@H](CCCNC(=N)N)NC(=O)[C@H](C)NC(=O)[C@H](CCCNC(=N)N)NC(=O)[C@H](CCCCNC(=O)COCCOCCNC(=O)COCCOCCNC(=O)CC[C@H](NC(=O)CCCCCCCCCCCCCCCCC(=O)O)C(=O)O)NC(=O)[C@H](CO)NC(=O)[C@H](CC(=O)O)NC(=O)[C@H](CC(C)C)NC(=O)[C@](C)(Cc1ccccc1)NC(=O)[C@H](CCCCN)NC(=O)[C@H](CO)NC(=O)[C@@H](NC(=O)[C@H](CC(=O)O)NC(=O)[C@H](CO)NC(=O)[C@@H](NC(=O)[C@H](Cc1ccccc1)NC(=O)[C@@H](NC(=O)CNC(=O)[C@H](CCC(N)=O)NC(=O)C(C)(C)NC(=O)[C@@H](N)Cc1c[nH]cn1)[C@@H](C)O)[C@@H](C)O)C(C)C)C(C)C)C(=O)N[C@@H](CC(C)C)C(=O)N[C@@H](CCC(=O)O)C(=O)NC(C)(C)C(=O)NCC(=O)O) [Peptide 143],19.1 pM,32.6 pM
